The source of these data is FireProtDB (doi:10.1021/bi035651x).

Values joined by “and” are separate entries in the source; they are usually repeats but may differ in a detail not shown here. Identical values can stand only once.

For this data set the following is noted: Mus musculus, pH 7.4, 20 °C, Urea, Tris-HCl 20 mM, whole UniProt chain shown.

B1: Adenosine deaminase wild type, P03958 (protein)
chain: MAQTPAFNKPKVELHVHLDGAIKPETILYFGKKRGIALPADTVEELRNIIGMDKPLSLPGFLAKFDYYMPVIAGCREAIKRIAYEFVEMKAKEGVVYVEVRYSPHLLANSKVDPMPWNQTEGDVTPDDVVDLVNQGLQEGEQAFGIKVRSILCCMRHQPSWSLEVLELCKKYNQKTVVAMDLAGDETIEGSSLFPGHVEAYEGAVKNGIHRTVHAGEVGSPEVVREAVDILKTERVGHGYHTIEDEALYNRLLKENMHFEVCPWSSYLTGAWDPKTTHAVVRFKNDKANYSLNTDDPLIFKSTLDTDYQMTKKDMGFTEEEFKRLNINAAKSSFLPEEEKKELLERLYREYQ
Take B1: where the note is “CD”, the denaturant m value is 0.89 kcal/mol/M and 0.77 kcal/mol/M; the “denaturant midpoint (higher = more stable)” value is 6.15 M and 5.77 M; the unfolding free energy was 22.9 kJ/mol and 18.6 kJ/mol. Further, where the note is “Fluorescence”, the denaturant m value stood at 0.85 kcal/mol/M; the “denaturant midpoint (higher = more stable)” value is 6.08 M and 5.73 M; the unfolding free energy is 21.6 kJ/mol and 20.4 kJ/mol.
